# Source: patent US20110217237A1 (AbbVie / Abbott, published 2011)
# Positions count from the first letter of the chain named.
# B1: h1A11.11 (antibody, V domains shown)
# VH: EVQLVESGGGLVQPGGSLRLSCAASGFTFSNFPMAWVRQAPGKGLEWVATISSSDGTTYYRDSVKGRFTISRDNAKNSLYLQMNSLRAEDTAVYYCSRGYYNSPFAYWGQGTLVTVSS
# VL: DIQMTQSPSSLSASVGDRVTITCRASEDIYSNLAWYQQKPGKAPKLLIFDTNNLADGVPSRFSGSGSGTDFTLTISSLQPEDFATYYCQQYNNYPPTFGQGTKLEIKR
# notes: humanized IgG; also called VH.1b/VL.1b 1A11
# B2: h1A11.12 (antibody, V domains shown)
# VH: B1 VH
# VL: EIVMTQSPATLSVSPGERATLSCRASEDIYSNLAWYQQKPGQSPRLLIFDTNNLADGVPARFSGSGSGTESTLTISSLQSEDFAVYFCQQYNNYPPTFGQGTKLEIKR
# notes: humanized IgG; also called VH.1b/VL.2a 1A11
# B3: h1A11.16 (antibody, V domains shown)
# VH: B1 VH with A75S, N77S, S78T
# VL: B2 VL
# notes: humanized IgG; also called VH.2a/VL.2a 1A11
# B4: h1A11.10 (antibody, V domains shown)
# VH: B1 VH
# VL: B1 VL with A43S, F71S, Y87F
# notes: humanized IgG; also called VH.1b/VL.1a 1A11
# B5: h1A11.15 (antibody, V domains shown)
# VH: B1 VH with A75S, N77S, S78T
# VL: B1 VL
# notes: humanized IgG; also called VH.2a/VL.1b 1A11
# B6: h1A11.13 (antibody, V domains shown)
# VH: B1 VH with A75S, N77S, S78T
# VL: B1 VL with F49Y
# notes: humanized IgG; also called VH.2a/VL.1 1A11
# B7: h1A11.14 (antibody, V domains shown)
# VH: B1 VH with A75S, N77S, S78T
# VL: B1 VL with A43S, F71S, Y87F
# notes: humanized IgG; also called VH.2a/VL.1a 1A11
# B8: h1A11.B5 (antibody, V domains shown)
# VH: B1 VH with S30R, N31Y, A35S, T50S, S53G, T57W, T58A, Y59S, S97A, Y107S
# VL: DIQMTQSPSSLSASVGDRVTITCRASQDIWNNLAWYQQKPGKSPKLLIFDTSYLADGVPSRFSGSGSGTDFTLTISSLQPEDFATYYCQQYDWYPPTFGQGTKLEIK
# notes: also called h1A11.B5 VH / h1A11.B5 VL
# B9: h38H12.1 (antibody, V domains shown)
# VH: EVQLVESGGGVVQPGRSLRLSCAASGFTFSNYGMYWVRQAPGKGLEWVAFISHGGGITYYRDSVKGRFTISRDNSKNTLYLQMNSLRAEDTAVYYCARLNWELGIDYWGQGTMVTVSS
# VL: DIQMTQSPSSLSASVGDRVTITCRASEDIYSNLAWYQQKPGKAPKLLIYAANRLQDGVPSRFSGSGSGTDFTLTISSLQPEDFATYYCLQGSKFPLTFGQGTKLEIKR
# notes: humanized IgG; also called VH.1/VL.1 38H12
# B10: h38H12.2 (antibody, V domains shown)
# VH: B9 VH
# VL: B9 VL with Q38K, A43S, F71Y, Y87F
# notes: humanized IgG; also called VH.1/VL.1a 38H12
# B11: h38H12.3 (antibody, V domains shown)
# VH: B9 VH
# VL: B9 VL with F71Y
# notes: humanized IgG; also called VH.1/VL.1b 38H12
# B12: h38H12.4 (antibody, V domains shown)
# VH: B9 VH
# VL: EIVMTQSPATLSVSPGERATLSCRASEDIYSNLAWYQKKPGQSPRLLIYAANRLQDGVPARFSGSGSGTEYTLTISSLQSEDFAVYFCLQGSKFPLTFGQGTKLEIKR
# notes: humanized IgG; also called VH.1/VL.2a 38H12
# Molecular target: T1, human DLL4 extracellular domain (human, UniProt Q9NR61 27-529)
# T1 construct: purified recombinant ECD; biotin-labelled or 6xHis-tagged depending on the assay; also called huDLL4 ECD; hu DLL4 ECD
# Experiment: SPR (Biacore)
# Method: (§1) The BIACORE® surface plasmon resonance assay (Biacore, Inc., Piscataway, N.J., US) determines the affinity of antibodies with kinetic measurements of on-rate and off-rate constants. Binding of DLL4 antibodies to a purified recombinant DLL4 extracellular domain (ECD) was determined by surface plasmon resonance-based measurements with a Biacore® instrument (either a Biacore 2000, Biacore 3000, or Biacore T100; GE Healthcare, Piscataway, N.J., US) using running buffer HBS-EPB (10 mM HEPES [pH 7.4], 150 mM NaCl, 3 mM EDTA, 0.1 mg/ml BSA and 0.005% surfactant P20) at 25° C. For example, approximately 9000 RU of goat anti-human Fc specific polyclonal antibody (Thermo Fisher Scientific Inc., Rockford, Ill., US) diluted in 10 mM sodium acetate (pH 4.5) is directly immobilized across a CMS research grade biosensor chip using a standard amine coupling kit according to manufacturer's instructions and procedures at 25 μg/ml. Unreacted moieties on the biosensor surface were blocked with ethanolamine. For kinetic analysis, rate equations derived from the 1:1 Langmuir binding model were fitted simultaneously to multiple antigen injections (using global fit analysis) with the use of Scrubber 2 (BioLogic Software), Biacore Biaevaluation 4.0.1 software or Biacore T100 Evaluation software. Purified antibodies were diluted in running buffer for capture across goat anti-human Fc reaction surfaces. Antibodies to be captured as a ligand (1 μg/ml) were injected over reaction matrices at a flow rate of 10 μl/min. During the assay, all measurements were referenced against the capture surface alone (i.e., with no captured anti-DLL4 antibody). […] The equilibrium dissociation constant KD (M) of the reaction between antibodies and the target antigen was then calculated from the kinetic rate constants by the following formula: KD=Koff/Kₒₙ. Binding was recorded as a function of time and kinetic rate constants were calculated.
# T1 sequence (Q9NR61 27-529 limits assumed): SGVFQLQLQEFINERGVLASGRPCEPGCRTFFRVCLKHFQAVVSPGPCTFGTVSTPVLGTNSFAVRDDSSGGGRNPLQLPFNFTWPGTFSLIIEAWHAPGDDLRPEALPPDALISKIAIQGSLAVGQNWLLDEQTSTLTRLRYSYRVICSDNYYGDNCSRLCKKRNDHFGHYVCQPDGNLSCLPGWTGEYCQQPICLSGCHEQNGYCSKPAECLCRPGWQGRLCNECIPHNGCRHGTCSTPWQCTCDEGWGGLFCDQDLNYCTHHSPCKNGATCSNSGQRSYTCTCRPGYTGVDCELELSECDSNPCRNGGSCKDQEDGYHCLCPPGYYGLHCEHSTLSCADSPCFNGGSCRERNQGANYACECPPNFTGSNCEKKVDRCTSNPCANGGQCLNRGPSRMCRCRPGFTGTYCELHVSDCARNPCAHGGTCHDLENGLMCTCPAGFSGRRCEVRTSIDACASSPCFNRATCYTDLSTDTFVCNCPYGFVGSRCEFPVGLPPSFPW
row,Kd [pM],Binder
1,12000,B1
2,14000,B2
3,15000,B3
4,13000,B4
5,14000,B5
6,14000,B6
7,13000,B7

# Molecular target: T2, mouse DLL4 extracellular domain (mouse, UniProt Q9JI71 27-532)
# T2 construct: extracellular domain; also called muDLL4 ECD; murine DLL4
# Experiment: SPR (Biacore)
# Method: as §1
# T2 sequence (Q9JI71 27-532): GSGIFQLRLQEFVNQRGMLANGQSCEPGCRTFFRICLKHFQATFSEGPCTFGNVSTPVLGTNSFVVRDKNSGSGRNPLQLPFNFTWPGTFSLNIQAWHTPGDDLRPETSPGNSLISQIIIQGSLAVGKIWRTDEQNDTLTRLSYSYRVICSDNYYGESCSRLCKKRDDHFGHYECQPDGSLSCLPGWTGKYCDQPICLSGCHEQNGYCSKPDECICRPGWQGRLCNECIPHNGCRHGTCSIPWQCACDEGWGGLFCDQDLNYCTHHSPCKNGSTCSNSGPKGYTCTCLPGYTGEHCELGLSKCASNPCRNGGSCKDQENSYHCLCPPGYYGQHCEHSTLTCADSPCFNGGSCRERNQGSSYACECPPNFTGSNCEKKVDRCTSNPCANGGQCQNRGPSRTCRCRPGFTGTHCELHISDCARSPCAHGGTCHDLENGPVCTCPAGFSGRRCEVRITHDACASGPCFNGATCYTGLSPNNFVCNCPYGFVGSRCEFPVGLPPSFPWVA
row,Kd [pM],Binder
1,27000,B1
2,35000,B2
3,39000,B3
4,35000,B4
5,37000,B5
6,37000,B6
7,28000,B7

# Molecular target: T1, human DLL4 extracellular domain
# Experiment: binding ELISA
# Method: (§2) Plates were then washed 3 times. 100 μl/well of recombinant rat/human chimeric or recombinant human anti-DLL4 antibodies were then added to the plate (0.00164-27 nM, 4-fold serial dilution in ELISA buffer=PBST, 10% Superblock (Pierce #37515)) for 1 hour at 25° C. with shaking and then washed again 3 times. Plates were incubated with goat anti-human HRP (Pierce #31412) (1:40,000 dilution in ELISA buffer, 100 μl/well) for 1 hour at 25° C. with shaking, then washed 3 times. After the final wash, plates were incubated with 100 μl/well ELISA substrate (Sigma #T8665). The reaction was stopped after 8 minutes at 25° C. with 100 μl/well 1N HCl and the absorbance was read at 450 nm. Data were analyzed using Graphpad Prism software, and EC50 values were reported.
# (§3) Purified variants were further characterized for their affinities for human, murine and cynomolgus DLL4 by binding ELISA (Example 1.2, Method 2), by Biacore (Example 1.1), and by Flow Cytometry (FACS). […] The humanized variants were then tested for their functionality with human and murine DLL4 by competition ELISA (Example 1.3) and by Notch reporter assay (Example 1.6).
row,EC50 [pM],Binder
1,70,B1
2,60,B2
3,60,B3
4,60,B4
5,70,B5
6,60,B6
7,55,B7

# Molecular target: T3, cynomolgus monkey DLL4 extracellular domain (cynomolgus monkey)
# T3 construct: extracellular domain; also called cynoDLL4 ECD; Cyno DLL4
# Experiment: binding ELISA
# Method: as §2, §3
row,EC50 [pM],Binder
1,150,B1
2,160,B2
3,120,B3
4,150,B4
5,130,B5
6,160,B6
7,140,B7

# Molecular target: T2, mouse DLL4 extracellular domain
# Experiment: binding ELISA
# Method: as §2, §3
row,EC50 [pM],Binder
1,90,B1
2,80,B2
3,90,B3
4,90,B4
5,90,B5
6,90,B6
7,70,B7

# Molecular target: T1, human DLL4 extracellular domain
# Experiment: SPR (Biacore)
# Remark: another data set of the same source
# Method: as §1
Kd [pM],koff [s⁻¹],kon [M⁻¹ s⁻¹],Binder
1000,0.000134,130000,B8

# Molecular target: T3, cynomolgus monkey DLL4 extracellular …
# Experiment: SPR (Biacore)
# Method: as §1
Kd [pM],koff [s⁻¹],kon [M⁻¹ s⁻¹],Binder
1500,0.000178,117000,B8

# Molecular target: T2, mouse DLL4 extracellular domain
# Experiment: SPR (Biacore)
# Remark: another data set of the same source
# Method: as §1
Kd [pM],koff [s⁻¹],kon [M⁻¹ s⁻¹],Binder
1200,0.000166,145000,B8

# Molecular target: T4, rat DLL4 extracellular domain (rat, UniProt D3ZHH1 28-530)
# T4 construct: extracellular domain; also called ratDLL4 ECD
# Experiment: SPR (Biacore)
# Method: as §1
# T4 sequence (D3ZHH1 28-530): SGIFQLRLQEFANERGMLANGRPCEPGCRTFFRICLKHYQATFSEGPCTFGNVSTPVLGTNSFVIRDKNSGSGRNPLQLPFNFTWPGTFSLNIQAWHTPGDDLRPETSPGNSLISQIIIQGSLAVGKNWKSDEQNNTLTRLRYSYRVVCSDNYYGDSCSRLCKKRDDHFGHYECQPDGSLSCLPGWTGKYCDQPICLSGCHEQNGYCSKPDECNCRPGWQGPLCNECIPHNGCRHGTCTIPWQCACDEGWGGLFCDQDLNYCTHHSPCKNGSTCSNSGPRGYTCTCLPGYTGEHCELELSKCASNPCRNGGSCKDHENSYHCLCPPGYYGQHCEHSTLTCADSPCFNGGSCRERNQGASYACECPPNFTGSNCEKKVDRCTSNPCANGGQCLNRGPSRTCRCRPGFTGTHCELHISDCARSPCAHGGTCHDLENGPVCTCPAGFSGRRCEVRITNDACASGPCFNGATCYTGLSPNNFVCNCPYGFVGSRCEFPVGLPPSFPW
Kd [pM],koff [s⁻¹],kon [M⁻¹ s⁻¹],Binder
410000,0.0397,98200,B8

# Molecular target: T5, human DLL4, full length, on cells (human, UniProt Q9NR61 27-685)
# T5 construct: also called huDLL4 cells; human DLL4-293G
# Experiment: FACS, DLL4 cells
# Method: Stable cell lines overexpressing cell-surface DLL4 were harvested from tissue culture flasks, washed four times and resuspended in phosphate buffered saline (PBS) containing 1% bovine serum albumin and 1 mM CaCl₂ (FACS buffer). 1.5×10⁵ cells were incubated with antibodies at various concentrations in FACS buffer for 60 minutes on ice. […] Following an incubation on ice (4° C., 60 minutes), cells were washed three times and resuspended in FACS buffer. Fluorescence was measured using a Becton Dickinson FACSCalibur-HTS (Becton Dickinson, San Jose, Calif., US). Data were analyzed using Graphpad Prism software and EC₅₀ values were reported as the concentration of antibody to achieve 50% of maximal DLL4 antibodies binding to DLL4 expressing cells.
# The good binder variants, as determined by binding ELISA, were assessed by Biacore (Example 1.1) concurrently with cell based assay screens. The KD for human DLL4 was similar for all variants (see, Biacore, KD in Table 18, below).
# T5 sequence (Q9NR61 27-685 limits assumed): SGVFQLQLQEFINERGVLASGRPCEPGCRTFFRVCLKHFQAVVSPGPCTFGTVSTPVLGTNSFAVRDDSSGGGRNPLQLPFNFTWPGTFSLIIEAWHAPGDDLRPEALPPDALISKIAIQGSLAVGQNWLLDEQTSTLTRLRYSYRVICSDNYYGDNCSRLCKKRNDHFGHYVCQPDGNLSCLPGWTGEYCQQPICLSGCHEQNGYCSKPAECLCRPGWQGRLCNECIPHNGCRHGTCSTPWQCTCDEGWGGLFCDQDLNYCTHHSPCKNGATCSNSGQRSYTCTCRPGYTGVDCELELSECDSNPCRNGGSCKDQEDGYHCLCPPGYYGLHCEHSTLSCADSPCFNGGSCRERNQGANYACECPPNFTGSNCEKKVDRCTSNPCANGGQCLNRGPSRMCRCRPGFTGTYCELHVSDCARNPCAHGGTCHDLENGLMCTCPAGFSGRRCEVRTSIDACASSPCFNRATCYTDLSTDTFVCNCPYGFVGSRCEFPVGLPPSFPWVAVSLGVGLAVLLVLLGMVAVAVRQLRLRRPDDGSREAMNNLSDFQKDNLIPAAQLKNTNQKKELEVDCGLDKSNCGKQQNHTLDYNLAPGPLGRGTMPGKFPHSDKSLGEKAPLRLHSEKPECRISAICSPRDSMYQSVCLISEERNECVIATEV
row,EC50 [pM],Binder
1,17800,B9

# Molecular target: T5, human DLL4, full length, on cells
# Experiment: cell-based or functional assay
row,"Reporter Assay (EC50, nM) [nM]",Binder
1,3.73,B1
2,2.89,B2
3,2.61,B3
4,5.88,B4
5,5.4,B5
6,10.4,B6
7,4.1,B7

# Molecular target: T1, human DLL4 extracellular domain
# Experiment: competition ELISA vs Notch-1
# Method: (§4) Plates were then washed 3 times with wash buffer (PBS, 0.05% Tween-20) and blocked with 200 μl/well blocking buffer (D-PBS, 1% BSA, 1 mM CaCl₂, 0.05% Tween-20) for 1 hour at 25° C. While blocking, biotin labeled DLL4 extracellular domain (14 nM) was mixed with antibody (30 pM-66 nM, 3-fold serial dilution in blocking buffer) for 1 hour at 25° C. with shaking. Assay plates were washed after blocking, and incubated with DLL4/antibody mixtures (100 μl/well, 1 hour at 25° C. with shaking). Plates were washed again and 100 μl/well streptavidin conjugated with HRP (Fitzgerald #65R-S104PHRPx, diluted 1:5,000 in blocking buffer) was added for 1 hour at 25° C. with shaking. After a final wash, plates were developed using 100 μl/well substrate (TMB Sigma #T8665), and the reaction was stopped using 100 μl/well 1N HCl, and the absorbance was read at 450 nm. Data were analyzed using Graphpad Prism software and IC₅₀ values were reported as the concentration of antibody to achieve 50% reduction of DLL4 bound to Notch1.
# as §3
row,IC50 [pM],Binder
1,400,B1
2,400,B2
3,300,B3
4,350,B4
5,200,B5
6,300,B6
7,250,B7

# Molecular target: T2, mouse DLL4 extracellular domain
# Experiment: competition ELISA vs Notch-1
# Method: as §4, §3
row,IC50 [pM],Binder
1,800,B1
2,900,B2
3,700,B3
4,900,B4
5,700,B5
6,1000,B6
7,700,B7

# Molecular target: T1, human DLL4 extracellular domain
# Experiment: capture ELISA, biotin-huDLL4 ECD
row,EC50 [pM],Binder
1,21500,B9
2,26900,B10
3,5570,B11
4,20600,B12
